Results reported in doi:10.1101/2024.02.21.581378 (bioRxiv, 2024).

Columns and labels:
[1] = target: macaque TMPRSS2 N469Y on transfected 293T cells (macaque)
[2] = target: T1, TMPRSS2^S441A (human TMPRSS2 residues 107-492, zymogen, uncleaved) (human, UniProt O15393 107-492, S441A); assay: crystal structure
[3] = target: cleaved soluble TMPRSS2^S441A (TMPRSS2^S441A-Cl) (human, UniProt O15393 107-255; O15393 256-492, S441A); assay: BLI
[4] = target: T1, TMPRSS2^S441A (human TMPRSS2 residues …); assay: BLI

T1 sequence (O15393 107-492 S441A): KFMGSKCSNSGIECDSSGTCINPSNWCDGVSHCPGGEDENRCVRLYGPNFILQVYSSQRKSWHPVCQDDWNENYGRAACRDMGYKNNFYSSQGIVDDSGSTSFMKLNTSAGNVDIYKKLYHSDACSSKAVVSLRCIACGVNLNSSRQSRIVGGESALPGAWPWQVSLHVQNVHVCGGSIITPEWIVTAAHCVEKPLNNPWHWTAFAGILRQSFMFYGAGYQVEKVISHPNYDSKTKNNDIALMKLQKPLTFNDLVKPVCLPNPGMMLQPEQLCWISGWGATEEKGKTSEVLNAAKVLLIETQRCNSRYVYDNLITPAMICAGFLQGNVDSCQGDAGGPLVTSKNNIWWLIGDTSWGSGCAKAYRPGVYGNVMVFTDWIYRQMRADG
cleaved soluble TMPRSS2^S441A (TMPRSS2^S441A-Cl), sequence (O15393 107-255, chain 1 of 2): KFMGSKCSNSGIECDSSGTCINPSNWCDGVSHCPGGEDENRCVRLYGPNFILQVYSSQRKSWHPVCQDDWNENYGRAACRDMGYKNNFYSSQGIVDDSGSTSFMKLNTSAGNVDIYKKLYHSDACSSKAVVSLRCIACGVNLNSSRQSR
cleaved soluble TMPRSS2^S441A (TMPRSS2^S441A-Cl), sequence (O15393 256-492 S441A, chain 2 of 2): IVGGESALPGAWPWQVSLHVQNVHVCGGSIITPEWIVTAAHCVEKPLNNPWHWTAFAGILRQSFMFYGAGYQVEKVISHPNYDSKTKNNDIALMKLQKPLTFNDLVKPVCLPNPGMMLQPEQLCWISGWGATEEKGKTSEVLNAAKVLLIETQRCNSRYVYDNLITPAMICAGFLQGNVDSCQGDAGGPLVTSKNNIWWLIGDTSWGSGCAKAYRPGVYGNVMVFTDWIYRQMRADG
soluble biotinylated HKU1B spike, sequence (Q0ZME7 13-1351): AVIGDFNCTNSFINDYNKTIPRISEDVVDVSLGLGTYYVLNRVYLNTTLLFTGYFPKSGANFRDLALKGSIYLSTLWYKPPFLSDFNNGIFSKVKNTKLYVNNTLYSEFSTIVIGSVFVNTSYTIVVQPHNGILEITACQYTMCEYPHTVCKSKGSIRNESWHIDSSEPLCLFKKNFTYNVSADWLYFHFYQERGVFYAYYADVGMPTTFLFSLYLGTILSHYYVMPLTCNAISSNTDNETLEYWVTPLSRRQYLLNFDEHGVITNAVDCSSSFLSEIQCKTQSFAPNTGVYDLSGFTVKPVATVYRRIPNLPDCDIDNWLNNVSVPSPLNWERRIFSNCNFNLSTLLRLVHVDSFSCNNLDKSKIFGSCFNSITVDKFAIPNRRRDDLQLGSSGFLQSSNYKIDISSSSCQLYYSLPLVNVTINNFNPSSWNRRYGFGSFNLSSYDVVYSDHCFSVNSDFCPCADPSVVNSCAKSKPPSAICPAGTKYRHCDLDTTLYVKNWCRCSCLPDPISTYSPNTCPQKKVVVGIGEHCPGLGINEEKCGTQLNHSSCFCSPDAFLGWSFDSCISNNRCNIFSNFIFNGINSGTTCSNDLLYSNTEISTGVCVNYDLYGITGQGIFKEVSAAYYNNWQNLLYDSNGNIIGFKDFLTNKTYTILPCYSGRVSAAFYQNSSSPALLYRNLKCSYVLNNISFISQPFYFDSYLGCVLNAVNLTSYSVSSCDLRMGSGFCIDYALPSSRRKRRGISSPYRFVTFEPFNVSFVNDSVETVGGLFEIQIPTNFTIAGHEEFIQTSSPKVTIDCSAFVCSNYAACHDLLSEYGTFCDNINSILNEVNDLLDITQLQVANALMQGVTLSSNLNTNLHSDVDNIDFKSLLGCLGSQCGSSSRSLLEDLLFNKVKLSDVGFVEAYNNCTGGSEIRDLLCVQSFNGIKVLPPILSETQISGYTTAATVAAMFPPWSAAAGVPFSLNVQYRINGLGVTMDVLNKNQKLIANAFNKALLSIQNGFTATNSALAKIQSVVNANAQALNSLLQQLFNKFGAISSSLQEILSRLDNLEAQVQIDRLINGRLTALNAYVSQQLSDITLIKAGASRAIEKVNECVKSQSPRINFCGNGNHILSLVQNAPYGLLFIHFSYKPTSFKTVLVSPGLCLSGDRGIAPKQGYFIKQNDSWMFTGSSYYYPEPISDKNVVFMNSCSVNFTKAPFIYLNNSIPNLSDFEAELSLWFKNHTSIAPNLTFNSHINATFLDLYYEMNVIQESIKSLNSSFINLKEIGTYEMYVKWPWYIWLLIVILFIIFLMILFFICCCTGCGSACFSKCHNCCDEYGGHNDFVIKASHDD

Molecule	binding result [3]	binding result [4]	also measured
soluble biotinylated HKU1B spike (from UniProt Q0ZME7) (natural protein)	–	–	entry of HKU1B pseudoviruses, fold increase against wild-type macaque TMPRSS2 [1]: 10 fold
HKU1B RBD and subdomain-1 (RBD-SD1, residues 307-675 of the spike protein) (domain or fragment) SGFTVKPVATVYRRIPNLPDCDIDNWLNNVSVPSPLNWERRIFSNCNFNLSTLLRLVHVDSFSCNNLDKSKIFGSCFNSITVDKFAIPNRRRDDLQLGSSGFLQSSNYKIDISSSSCQLYYSLPLVNVTINNFNPSSWNRRYGFGSFNLSSYDVVYSDHCFSVNSDFCPCADPSVVNSCAKSKPPSAICPAGTKYRHCDLDTTLYVKNWCRCSCLPDPISTYSPNTCPQKKVVVGIGEHCPGLGINEEKCGTQLNHSSCFCSPDAFLGWSFDSCISNNRCNIFSNFIFNGINSGTTCSNDLLYSNTEISTGVCVNYDLYGITGQGIFKEVSAAYYNNWQNLLYDSNGNIIGFKDFLTNKTYTILPCYSG	–	–	binding result [2]: binds
HKU1B RBD (residues 330-614 of the spike protein), wild type (domain or fragment) DNWLNNVSVPSPLNWERRIFSNCNFNLSTLLRLVHVDSFSCNNLDKSKIFGSCFNSITVDKFAIPNRRRDDLQLGSSGFLQSSNYKIDISSSSCQLYYSLPLVNVTINNFNPSSWNRRYGFGSFNLSSYDVVYSDHCFSVNSDFCPCADPSVVNSCAKSKPPSAICPAGTKYRHCDLDTTLYVKNWCRCSCLPDPISTYSPNTCPQKKVVVGIGEHCPGLGINEEKCGTQLNHSSCFCSPDAFLGWSFDSCISNNRCNIFSNFIFNGINSGTTCSNDLLYSNTEI	–	–	Kd [3]: 30 nM
HKU1B RBD (residues 330-614) S529A (domain or fragment) DNWLNNVSVPSPLNWERRIFSNCNFNLSTLLRLVHVDSFSCNNLDKSKIFGSCFNSITVDKFAIPNRRRDDLQLGSSGFLQSSNYKIDISSSSCQLYYSLPLVNVTINNFNPSSWNRRYGFGSFNLSSYDVVYSDHCFSVNSDFCPCADPSVVNSCAKSKPPSAICPAGTKYRHCDLDTTLYVKNWCRCSCLPDPISTYAPNTCPQKKVVVGIGEHCPGLGINEEKCGTQLNHSSCFCSPDAFLGWSFDSCISNNRCNIFSNFIFNGINSGTTCSNDLLYSNTEI	binds	–	–
HKU1B RBD (residues 330-614) L510R (domain or fragment) DNWLNNVSVPSPLNWERRIFSNCNFNLSTLLRLVHVDSFSCNNLDKSKIFGSCFNSITVDKFAIPNRRRDDLQLGSSGFLQSSNYKIDISSSSCQLYYSLPLVNVTINNFNPSSWNRRYGFGSFNLSSYDVVYSDHCFSVNSDFCPCADPSVVNSCAKSKPPSAICPAGTKYRHCDLDTTRYVKNWCRCSCLPDPISTYSPNTCPQKKVVVGIGEHCPGLGINEEKCGTQLNHSSCFCSPDAFLGWSFDSCISNNRCNIFSNFIFNGINSGTTCSNDLLYSNTEI	binds	binds	–
HKU1B RBD (residues 330-614) Y528A (domain or fragment) DNWLNNVSVPSPLNWERRIFSNCNFNLSTLLRLVHVDSFSCNNLDKSKIFGSCFNSITVDKFAIPNRRRDDLQLGSSGFLQSSNYKIDISSSSCQLYYSLPLVNVTINNFNPSSWNRRYGFGSFNLSSYDVVYSDHCFSVNSDFCPCADPSVVNSCAKSKPPSAICPAGTKYRHCDLDTTLYVKNWCRCSCLPDPISTASPNTCPQKKVVVGIGEHCPGLGINEEKCGTQLNHSSCFCSPDAFLGWSFDSCISNNRCNIFSNFIFNGINSGTTCSNDLLYSNTEI	binds	binds	–
HKU1B RBD (residues 330-614) K487A (domain or fragment) DNWLNNVSVPSPLNWERRIFSNCNFNLSTLLRLVHVDSFSCNNLDKSKIFGSCFNSITVDKFAIPNRRRDDLQLGSSGFLQSSNYKIDISSSSCQLYYSLPLVNVTINNFNPSSWNRRYGFGSFNLSSYDVVYSDHCFSVNSDFCPCADPSVVNSCAASKPPSAICPAGTKYRHCDLDTTLYVKNWCRCSCLPDPISTYSPNTCPQKKVVVGIGEHCPGLGINEEKCGTQLNHSSCFCSPDAFLGWSFDSCISNNRCNIFSNFIFNGINSGTTCSNDLLYSNTEI	binds	binds	–
